# In article PMC4424837, “Toxin acidic residue evolutionary function-guided design of de novo peptide drugs for the immunotherapeutic target, the Kv1.3 channel” (Scientific Reports, 2015):
# Positions of bridges follow the written chain, without caps; N, C: chain ends. Residues, ends and D or L forms follow the SMILES beside them. No end group written: not given here.
# How the values were obtained:
# [1] = biological target: T1, Kv1.3 channel (Mus musculus, UniProt P16390); assay: Patch-clamp whole-cell recording of Kv1.3 channel currents in transfected HEK293 cells; assay type: cell-based; details: for Reduction of the affinity of BmKTX-196 for the Kv1.3 channel: alanyl mutants of BmKTX-196
# T1 construct: expressed in transfected cells; host or cells: HEK293 cells
# Protocol: (§1) The cDNAs encoding mouse Kv1.1, human Kv1.2, mouse Kv1.3, human Kv7.1, human Kv11.1, human KCa3.1, human KCa2.2 and human KCa2.3 were subcloned into the Xho I and Bam HI sites of pIRES2-EGFP, a bicistronic expression vector (Clontech, USA) for coexpression with enhanced GFP.
# (§2) Electrophysiological experiments were carried out using patch-clamp whole-cell recording as described previously[10][23][27][38]. HEK293 cells were transfected with appropriate cDNA plasmids using the SofastTM Transfection Reagent (Sunma). Potassium currents were recorded 1 to 3 days after transfection and positive cells were selected based on the presence of GFP fluorescence. Electrophysiological experiments were carried out at 22–25°C using patch-clamp whole-cell recording. Data analyses were performed with IgorPro (WaveMetrics, Lake Oswego, OR), and IC50 values were deduced by fitting a modified Hill equation to the data, Itoxin/Icontrol = 1/1 + ([toxin peptide]/IC50), where I is the peak current to the normalized data points obtained with at least five different toxin peptide concentrations. The results are mainly shown as the mean ± S.E, with n representing the number of experiments.
# [2] = test system: Kv11.1; assay: Patch-clamp whole-cell recording of Kv11.1 channel currents in transfected HEK293 cells; assay type: cell-based, human; details: 1 μM peptide, compared with Kv1.3
# Protocol: as §1, §2
# T1 sequence (P16390 whole entry): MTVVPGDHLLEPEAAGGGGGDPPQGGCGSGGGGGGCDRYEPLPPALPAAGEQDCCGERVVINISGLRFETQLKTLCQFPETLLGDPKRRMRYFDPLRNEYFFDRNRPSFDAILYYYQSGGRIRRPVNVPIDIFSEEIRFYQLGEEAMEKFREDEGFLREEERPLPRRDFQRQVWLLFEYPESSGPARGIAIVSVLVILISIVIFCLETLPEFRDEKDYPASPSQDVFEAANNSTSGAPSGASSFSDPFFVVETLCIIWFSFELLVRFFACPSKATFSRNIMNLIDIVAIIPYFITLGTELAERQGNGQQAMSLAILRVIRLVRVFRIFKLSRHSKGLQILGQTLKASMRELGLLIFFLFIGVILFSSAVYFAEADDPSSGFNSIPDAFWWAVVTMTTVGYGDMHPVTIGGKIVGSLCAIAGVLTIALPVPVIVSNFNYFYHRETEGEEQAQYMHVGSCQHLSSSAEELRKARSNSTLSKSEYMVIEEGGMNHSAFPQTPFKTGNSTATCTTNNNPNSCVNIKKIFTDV
compound,measurement,setting,value
BmKTX-196/K8A: alanyl mutant of BmKTX-196 at Lys8 (VGINVDCAHSGQCLKPCKKAGMRFGKCINGKCDCTPKG; ends and bridges not checked; cysteine pairing not given here),Reduction of the affinity of BmKTX-196 for the Kv1.3 channel,[1]; alanine-scanning mutagenesis,68 fold
BmKTX-19/K6A: alanyl mutant of BmKTX-19 at Lys6 (VGINVACKHSGQCLKPCKKAGMRFGKCINGKCDCTPKG; ends and bridges not checked; cysteine pairing not given here),Impact on the inhibitory potency of BmKTX-19 on Kv1.3,"[1]; alanine-scanning mutagenesis, alanyl mutants of BmKTX-19, compared with the Lys8, His9 and Lys15 substitutions",much less of an impact
BmKTX-196/H9A: alanyl mutant of BmKTX-196 at His9 (VGINVDCKASGQCLKPCKKAGMRFGKCINGKCDCTPKG; ends and bridges not checked; cysteine pairing not given here),Reduction of the affinity of BmKTX-196 for the Kv1.3 channel,[1]; alanine-scanning mutagenesis,3 fold
"CC[C@H](C)[C@H](NC(=O)CNC(=O)[C@@H](N)C(C)C)C(=O)N[C@@H](CC(N)=O)C(=O)N[C@H](C(=O)N[C@@H](CC(=O)O)C(=O)N[C@H]1CSSC[C@@H]2NC(=O)[C@H](CCCCN)NC(=O)CNC(=O)[C@H](Cc3ccccc3)NC(=O)[C@H](CCCNC(=N)N)NC(=O)[C@H](CCSC)NC(=O)CNC(=O)[C@H](C)NC(=O)[C@H](CCCCN)NC(=O)[C@H](CCCCN)NC(=O)[C@@H]3CSSC[C@@H](C(=O)N[C@H](C(=O)N4CCC[C@H]4C(=O)N[C@@H](CCCCN)C(=O)O)[C@@H](C)O)NC(=O)[C@H](CC(=O)O)NC(=O)[C@H](CSSC[C@H](NC(=O)[C@H](CCC(N)=O)NC(=O)CNC(=O)[C@H](CO)NC(=O)[C@H](Cc4c[nH]cn4)NC(=O)[C@H](CCCCN)NC1=O)C(=O)N[C@@H](CC(C)C)C(=O)N[C@@H](CCCCN)C(=O)N1CCC[C@H]1C(=O)N3)NC(=O)[C@H](CCCCN)NC(=O)CNC(=O)[C@H](CC(N)=O)NC(=O)[C@H]([C@@H](C)CC)NC2=O)C(C)C [BmKTX-196] (H-VGINVDCKHSGQCLKPCKKAGMRFGKCINGKCDCTPK-OH; disulfide 7-27, 13-32, 17-34)",Inhibition of Kv1.3 channel currents,"[1]; 10 nM peptide, whole-cell patch clamp, HEK293",more than 50%
same,IC50,"[1]; whole-cell patch clamp, HEK293 transfected with mouse Kv1.3, 22-25°C, Hill fit, at least five concentrations, mean ± S.E. of at least three experiments, read-out: IC50 for inhibiting Kv1.3 channel current",7.3 ± 1.8 nM
same,Effect on Kv11.1 channel currents,[2],much less of an effect
